Measured values reported in the RNAGym collection of RNA variant scans (doi:10.1073/pnas.2313332121).

B1: TPR t1 (parent)
chain: GACCAAUCUGCCCUCAGAGCUCGAGAACAUCUUCGGAUGCAGAGGAGGCAGGCUUCGGUGGCGCGAUAGCGCCAACGUCCUCAACCUCCAAUGCAUCCCACCACAUGAUGAUGCCUGAAGAGCCUUGGUUUUUUG

Variants of: B1
Assay: polymerase ribozyme fitness, log enrichment relative to wild type (log ratio); higher = more active; in vitro selection for triplet polymerase activity
Outline: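 Mutant libraries for each subunit of a heterodimeric triplet polymerase ribozyme were made by PCR and then transcribed. Each library underwent one round of in vitro selection in triplicate: annealing with a biotinylated primer, the partner subunit and triplets, frozen incubation at −7 °C, gel excision of extended constructs, streptavidin-bead capture and RT-PCR. Input and output libraries were Illumina-sequenced, and only genotypes with ≥10 input reads and ≥1 read per output were kept. Fitness is the logarithm, base 2, of genotype enrichment over wild-type enrichment, computed from inverse-variance-weighted replicate averages.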

Variant | polymerase ribozyme fitness (log ratio)
C56G A100U | -0.785
C56U G69U A90C C94A C104G G113U G122A | -6.84
U55G C62G C123U | -0.0735
C56A C70G C124A G127A | -2.78
C56G U87A C115U | -1.94
G58A U81C C85G | -2.26
G58A G61A G120A | 0.579
G57C C82G C97U | -1.07
G58A C88U C94U G127C G135U | -3.94
C56G C88A C115U A119G | 1.4
G57C | -0.176
G57U | -0.128
G57A | -0.653
C56A C88U C124A U133C | 2.43
U55C C72G A83G U126A | -2.13
C56A G71C | -4.4
C56A G71A | -3.71
U55C C70U C85A | -2.03
U54G A103U | -4.6
C56A C72U G110A G122U | -2.87
G57A C70A | -3.43

Variant | polymerase ribozyme fitness (log ratio)
C56A G113A | -0.455
G57U A119G | 1.22
U54C C72U C89U A111C | -0.0742
U55C C70U C88G | -0.976
C56G C72A | -2.48
U55C G58A G122A | -0.971
C56U C97A | -4.36
C56U G110U C114U U125A | -3.23
C56U A84G U133G | -1.14
C56U U109C | -2.15
U55G A66U | -0.936
U54C U78G G117U | -3.85
C56A U106G G110C | -5.41
U54C C76U | -0.00868
U54G C114A | -1.69
U54C U116A U131C | -3.16
U54G G63A G69U U78G C102A U106G G120C | -6.62
C56G A66C | -1.08
C56A A90U | -1.48
G57U C72U A83U A111U | -4.12
C56A G93C | -1.88

Variant | polymerase ribozyme fitness (log ratio)
C56A G93A | -0.661
C56G A95G | -1.22
C56A C80U A111U | -4
U55G G69A C73A | -3.04
G58A G61A G93A G113C U125C G135A | -2.01
C56U G110C | -3.43
C56U C82A U106G G117U | -4.65
C56U C76A G93A G120C | -4.53
U55G C62A C88G | -2.24
G57A G69C | -1.82
U54A C89U U96C G127A | -1.97
C56G C72U U130A | -1.31
C56U C70U | -0.666
C56G C72G U87G C98U | -1.99
C56U C104A | -1.58
C56G C70A A83G U96C G120A | -4.37
C56G C64U C80A | -2.96
C56U C85G | -2.65
C56G G69A A119U | -3.54
C56U C79A C101U | -1.23
C56U A105U | -2.17

Variant | polymerase ribozyme fitness (log ratio)
C56G U92C C123A | -1.13
G57C C85G C114U A119C | -6.42
U55A C79G | -0.669
C56A C80A U116G | -4.93
C56G C101U | -0.0823
C56G C86U U112A A118G A119G | 1.32
C56U C97U U106A G127U | -0.714
C56G G110U G135C | -1.62
G57U A75G A83C G117A | -2
C56A A83U | -1.62
C56U U59A C101U G122A | -1.81
G57A U96G A105U C123G G127A | -5.35
U55A G77U C115U U125A | -1.02
U55C A90U | -1.58
C56U C115U | -0.661
G57U U78A C80U | -0.707
U54C C115A G122A C123A U131A | -1.4
U54C G61C | -2.14
C56U C72U U78A C80A | -4.1
G57A C73U U78A C99U G128C | -6.66
C56U G57C G69C | -0.611
